Experimental data from PMC12511625.

Columns and labels:
[1] = target: S. venezuelae ParB_(SMC-) variant (TDR 132-134 to AAT, D164R) (S. venezuelae); details: scale: μmol of phosphate released by 1 μmol of ParB in one hour
[2] = target: S. venezuelae ParB (wild type, recombinant, cleaved from GST) (S. venezuelae); details: scale: μmol of phosphate released by 1 μmol of ParB in one hour

CTP hydrolysis (phosphate released) by ParB (SMC-) (2 μM) with parS-containing plasmid DNA and FLAG-SMC (1:100 molar ratio); without FLAG-SMC 46.7 +/− 3.9; said to be similar with and without SMC [1]: 39 | CTP hydrolysis (phosphate released) by ParB (2 μM) with parS-containing plasmid DNA and FLAG-SMC (0.02 μM, 1:100 molar ratio); without FLAG-SMC 65.1 +/− 2.9 [2]: 35.2
Substance: FLAG-SMC of S. venezuelae (natural protein)
